For assay [1], the target named is H-ferritin binding sites (receptor) on rat brain microvessels (rat). The experiment in a line: saturation binding of 125I-rH-ferritin to rat brain microvessels, global non-linear one-site fit.
Assay [2] concerns the target H-ferritin binding sites (receptor) on bovine retinal endothelial cell (BREC) homogenate (bovine). In words: saturation binding of 125I-rH-ferritin to BREC homogenate, global non-linear one-site fit.

Take “recombinant human H-ferritin (from UniProt P02794 1-183) (ligand)”: in assay [1], the Bmax (fmol/mg protein) was 573 and the Kd was 7.9 nM. In assay [2], this substance yielded a Bmax (fmol/mg protein) of 466 and a Kd of 2.7 nM.

A word on the Kd: it is the free concentration of one partner at which half of the binding sites on the other are occupied at equilibrium, for simple one-to-one binding. High values mean a looser complex, low ones a tighter complex.
